Source: article PMC9259484 (Nature, 2022)

Target: SARS-CoV-2 Wuhan-Hu-1 receptor binding domain (RBD), Spike (S) protein residues 319-539 (SARS-CoV-2, UniProt P0DTC2)
Experiment: BLI
Conditions: both partners purified

| Binder | binding result |
| --- | --- |
| C118 (antibody, V domains shown) VH: QVQLVESGGGVVQPGRSLRLSCAASGFTFSNYAMHWVRQAPGKGLEWVAVISYDGSNKYYADSVKGRFTISRDNSKNTLYLQMNSLRAEDTAIYYCASGYTGYDYFVRGDYYGLDVWGQGTTVTVSS VL: QPVLTQSPSASASLGASVKLTCTLSSGHSSYAIAWHQQQPEKGPRYLMKLNTDGSHSKGDGIPDRFSGSSSGAERYLTISSLQSEDEADYYCQTWGTGILVFGGGTKLTVL | binds |
| C105 (antibody, V domains shown) VH: QVQLVESGGGLIQPGGSLRLSCAASGFTVSSNYMSWVRQAPGKGLEWVSVIYSGGSTYYADSVKGRFTISRDNSKNTLYLQMNSLRAEDTAVYYCARGEGWELPYDYWGQGTLVTVSS VL: QSALTQPPSASGSPGQSVTISCTGTSSDVGGYKYVSWYQQHPGKAPKLMIYEVSKRPSGVPDRFSGSKSGNTASLTVSGLQAEDEADYYCSSYEGSNNFVVFGGGTKLTVL | binds |
